Results from patent US6518415 (LUDWIG INSTITUTE FOR CANCER RESEARCH, dated 2003).

Columns and labels:
[1] = biological target: T1, HSA (UniProt P02768 25-609); assay: ELISA, HSA dried on Terasaki plates, Experiment A
Experimental: (§1) The plates were blocked for 1 hour at room temperature using PBS/3% BSA and washed three times with PBS. Serial dilutions of test antibodies in PBS/3% BSA were applied to the wells and the plates incubated for 1 hour before washing as above. Suitable anti-murine antibody or anti-human antibody alkaline phosphatase-conjugated antibodies were diluted in PBS/3% BSA and incubated in the wells for 1.5 h. After washing, colour was developed using diethanolamine and p-nitrophenyl phosphate at 37° C. for about 20 min and the absorbances measured at 405 mn.

[2] = biological target: T1, HSA; assay: ELISA, HSA dried on Terasaki plates, Experiment B
Experimental: as §1

T1 sequence (P02768 25-609): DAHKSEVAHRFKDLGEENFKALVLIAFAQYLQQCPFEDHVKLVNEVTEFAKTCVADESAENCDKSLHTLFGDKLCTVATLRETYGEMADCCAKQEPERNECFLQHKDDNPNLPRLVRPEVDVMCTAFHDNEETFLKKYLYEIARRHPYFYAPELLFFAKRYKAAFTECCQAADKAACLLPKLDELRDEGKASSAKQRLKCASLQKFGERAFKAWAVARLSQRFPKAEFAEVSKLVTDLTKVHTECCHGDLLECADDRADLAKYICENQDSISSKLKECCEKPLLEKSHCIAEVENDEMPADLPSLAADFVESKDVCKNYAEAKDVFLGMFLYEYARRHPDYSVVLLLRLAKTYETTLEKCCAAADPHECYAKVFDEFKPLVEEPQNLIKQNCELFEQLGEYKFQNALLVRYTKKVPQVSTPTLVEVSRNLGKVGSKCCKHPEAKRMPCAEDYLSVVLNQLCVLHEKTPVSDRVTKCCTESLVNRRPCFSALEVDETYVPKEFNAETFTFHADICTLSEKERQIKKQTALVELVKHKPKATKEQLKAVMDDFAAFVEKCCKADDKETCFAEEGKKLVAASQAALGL

Row | Binder | binding result [1] | binding result [2]
1 | humanized 3S193 antibody HuVH/HuVK (antibody, V domains shown, also called 3S193 HuVH/HuVK) VH: EVQLVESGGGVVQPGRSLRLSCSSSGFTFSDYYMYWVRQAPGKGLEWVAYMSNVGAITDYPDTVKGRFTISRDNSKNTLFLQMDSLRPEDTGVYFCARGTRDGSWFAYWGQGTPVTVSS VL: DIQMTQSPSSLSASVGDRVTITCRSSQRIVHSNGNTYLEWYQQTPGKAPKLLIYKVSNRFSGVPSRFSGSGSGTDYTFTISSLQPEDIATYYCFQGSHVPFTFGQGTKLQIT | no binding (tested: 100 µg/ml (highest concentration tested)) | –
2 | humanized 3S193 antibody HuVHASY/HuVKF (antibody, V domains shown, also called 3S193HuVHASY) VH: EVQLVESGGGVVQPGRSLRLSCSSSGFTFSDYYMYWVRQAPGKGLEWVAYMSNVGAITDYPDTVKGRFTISRDNAKSTLYLQMDSLRPEDTGVYFCARGTRDGSWFAYWGQGTPVTVSS VL: DIQMTQSPSSLSASVGDRVTITCRSSQRIVHSNGNTYLEWYQQTPGKAPKLLIYKVSNRFSGVPSRFSGSGSGTDFTFTISSLQPEDIATYYCFQGSHVPFTFGQGTKLQIT | – | no binding (tested: 100 µg/ml (highest concentration tested))
3 | humanized 3S193 antibody HuVHA/HuVKF (antibody, V domains shown) VH: EVQLVESGGGVVQPGRSLRLSCSSSGFTFSDYYMYWVRQAPGKGLEWVAYMSNVGAITDYPDTVKGRFTISRDNAKNTLFLQMDSLRPEDTGVYFCARGTRDGSWFAYWGQGTPVTVSS VL: DIQMTQSPSSLSASVGDRVTITCRSSQRIVHSNGNTYLEWYQQTPGKAPKLLIYKVSNRFSGVPSRFSGSGSGTDFTFTISSLQPEDIATYYCFQGSHVPFTFGQGTKLQIT | – | no binding (tested: 100 µg/ml (highest concentration tested))
4 | humanized 3S193 antibody HuVHAS/HuVKF (antibody, V domains shown) VH: EVQLVESGGGVVQPGRSLRLSCSSSGFTFSDYYMYWVRQAPGKGLEWVAYMSNVGAITDYPDTVKGRFTISRDNAKSTLFLQMDSLRPEDTGVYFCARGTRDGSWFAYWGQGTPVTVSS VL: DIQMTQSPSSLSASVGDRVTITCRSSQRIVHSNGNTYLEWYQQTPGKAPKLLIYKVSNRFSGVPSRFSGSGSGTDFTFTISSLQPEDIATYYCFQGSHVPFTFGQGTKLQIT | – | no binding (tested: 100 µg/ml (highest concentration tested))
5 | murine monoclonal antibody 3S193 (antibody, V domains shown, The N-terminal residues of the VK in the listing are dictated by the VK10BACK primer; also called murine 3S193) VH: EVKLVESGGGLVQPGGSLKLSCATSGFTFSDYYMYWVRQTPEKRLEWVAYMSNVGAITDYPDTVKGRFTISRDNAKSTLYLQMSRLRSEDTAMYYCARGTRDGSWFAYWGQGTLVTVSA VL: DVLMTQTPLSLPVSLGDQASISCRSSQRIVHSNGNTYLEWYLQKPGQSPKLLIYKVSNRFSGVPDRFSGSGSGTDFTLKISRVEAEDLGVYYCFQGSHVPFTFGSGTKLEIK | no binding (tested: 100 µg/ml (highest concentration tested)) | –
